According to US20150210767A1 (GlaxoSmithKline, published 2015):
Positions count from the first letter of the chain named. Values belong to the binder of their own block, whether it stands above or below them.

What was measured:
[1] = target: T1, biotinylated recombinant human soluble TNFR1 (human, UniProt P19438 30-211, biotinylated (EZ-Link Sulfo-NHS-LC-Biotin), sites not stated); experiment: BIAcore (SPR), biotinylated human sTNFR1 on SA chip, dAb injected
T1 construct: extracellular domain; Captured on a streptavidin BIAcore chip; also called human sTNFR1; sTNFR1
T1 sequence (looked up): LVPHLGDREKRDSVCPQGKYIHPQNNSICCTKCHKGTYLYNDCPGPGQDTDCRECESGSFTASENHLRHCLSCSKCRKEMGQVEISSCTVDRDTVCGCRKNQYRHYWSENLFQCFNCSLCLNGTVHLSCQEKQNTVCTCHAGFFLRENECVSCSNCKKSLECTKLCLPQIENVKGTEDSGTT
Protocol: (§1) To confirm the increase in accelerated stability four novel dAbs were also characterised according to the more extensive protocol described in example 1. In this protocol, the dAbs are incubated up to 48 h at 40° C., centrifuged and the remaining dAb in solution quantified using OD₂₈₀. […] To verify that the increase in stability is not at the expense of functional anti-TNFR1 activity of the dAb, the binding affinity to TNFR1 of the dAbs was determined by BIAcore, using biotinylated TNFR1 captured on a BIAcore SA chip. […] Therefore, these dAbs combine an increase in accelerated stability without compromising much on the affinity of the dAb for TNFR1.
TABLE 7 Accelerated stability and affinity for human sTNFR1 for novel anti-TNFR1 dAbs. Purified dAb was incubated at 1 mg/ml in PBS at 40° C. for the indicated amounts of time. After that time, the percentage of residual protein in solution was determined by OD280 determination. Affinity for sTNFR1 was determined by BIAcore using coated sTNFR1 and injecting the dAb as described.

[2] = target: T1, biotinylated recombinant human soluble …; experiment: BIAcore (SPR), biotinylated TNFR1 on SA chip; reference value of DOM1h-574-156 (150 pM) described previously
Protocol: as §1

[3] = target: T2, human TNFR1 on human umbilical vein endothelial cells (HUVECs) (human, UniProt P19438 30-455); experiment: cell-based or functional assay
T2 sequence (looked up): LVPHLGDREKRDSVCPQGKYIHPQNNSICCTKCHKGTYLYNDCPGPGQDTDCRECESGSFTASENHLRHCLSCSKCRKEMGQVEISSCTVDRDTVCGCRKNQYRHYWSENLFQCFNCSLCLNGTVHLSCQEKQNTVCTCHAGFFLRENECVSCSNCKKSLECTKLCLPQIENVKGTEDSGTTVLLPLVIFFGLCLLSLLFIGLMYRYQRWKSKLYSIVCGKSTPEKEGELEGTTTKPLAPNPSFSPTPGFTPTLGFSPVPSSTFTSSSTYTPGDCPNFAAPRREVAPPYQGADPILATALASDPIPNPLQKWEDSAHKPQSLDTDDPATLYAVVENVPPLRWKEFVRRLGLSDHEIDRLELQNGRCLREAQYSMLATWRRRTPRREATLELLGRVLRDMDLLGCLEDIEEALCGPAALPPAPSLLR

[4] = target: T1, biotinylated recombinant human soluble …; experiment: BIAcore (SPR), biotinylated human TNFR1 on streptavidin chip, fusion injected, mean of two experiments ± SD
Protocol: The affinity of the anti-TNFR1/AlbudAb fusions for human TNFR1 was determined by BIAcore. Briefly, the anti-TNFR1 molecules were injected over a streptavidin BIAcore chip on which biotinylated, human TNFR1 had been immobilised. Association and dissociation were determined at different concentrations of injected anti-TNFR1. […] The affinity for human TNFR1 as determined by BIAcore of the anti-TNFR1/AlbudAb fusion is slightly higher to that determined for the single anti-TNFR1 dAb used in each of the combination constructs.
The binding affinities for binding to recombinant human TNFR1 were assessed by BIAcore™ analysis. Analysis was carried out using Streptavidin coated (SA) chips (BIAcore, cat no. BR-1000-32). An SA chip was coated at low density using biotinylated hTNFR1. Examined molecules were injected over this surface at […] concentrations, i.e. 32, 16 (twice), 8, 4, 2, 1 and 0.5 nM, in random order using a flow rate of 50 μl/min. Between individual injections the surface was regenerated back to baseline using 10 mM glycine pH 2.0. Data were corrected for instrument artefacts using double referencing. Experiments were carried out on a BIAcore™ 3000 machine and data were analysed using the BIAevaluation software version 4.1, kₒₙ and koff were simultaneously fitted using 1:1 Langmuir binding model. For fitting purposes, the concentration range 1-32 nM was used for the monomers, while 0.5-16 nM was used for the AlbudAb fusion molecules. The binding data fitted well to the 1:1 model for all tested molecules. All KD values were calculated from kₒₙ and koff rates. BIAcore™ runs were carried out at 25° C.

Kd [1]: 0.35 nM
fold change of affinity against the parent dAb DOM1h-574-156 [2]: ≤ 4 fold
B1: DOM1h-574-188 (VHH)
VHH: EVQLLESGGGLVQPGGSLRLSCAASGFTFDKYSMGWVRQAPGKGLEWVSQISDTADRTYYAHSVKGRFTISRDNSKNTLYLQMNSLRAEDTAVYYCAIYTGRWVPFEYWGQGTLVTVSS
notes: Human VH immunoglobulin single variable domain (dAb), not camelid; also called anti-TNFR1 dAb DOM1h-574-188

Kd [1]: 0.58 nM
fold change of affinity against the parent dAb DOM1h-574-156 [2]: ≤ 4 fold
B2: DOM1h-574-214 (VHH)
VHH: B1 VHH with D30S, H62D
notes: Human VH immunoglobulin single variable domain (dAb), not camelid; Monomer cloned in pDOM13 for expression in E. coli; also called anti-TNFR1 dAb DOM1h-574-214

Kd [1]: 0.47 nM
fold change of affinity against the parent dAb DOM1h-574-156 [2]: ≤ 4 fold
B3: DOM1h-574-196 (VHH)
VHH: B1 VHH with D30S, V104E
notes: Human VH immunoglobulin single variable domain (dAb), not camelid; Monomer cloned in pDOM13 for expression in E. coli; also called anti-TNFR1 dAb DOM1h-574-196

Mean EC50, inhibition of TNF-alpha-induced VCAM-1 expression in the HUVEC cell assay [3]: 4.83 nM
Kd [4]: 0.18 nM
B4: DMS5544 (bispecific antibody)
chain: EVQLLESGGGLVQPGGSLRLSCAASGFTFDKYSMGWVRQAPGKGLEWVSQISDTADRTYYAHSVKGRFTISRDNSKNTLYLQMNSLRAEDTAVYYCAIYTGRWVPFEYWGQGTLVTVSSASTDIQMTQSPSSLSASVGDRVTITCRASRPIGTTLSWYQQKPGKAPKLLILWNSRLQSGVPSRFSGSGSGTDFTLTISSLQPEDFATYYCAQAGTHPTTFGQGTKVEIKR
notes: Single-chain genetic fusion of the anti-TNFR1 VH dAb DOM1h-574-188, linker AST and the anti-serum albumin Vk dAb DOM7h-11-3; also called DOM1h-574-188 - Ala-Ser-Thr - DOM7h-11-3; anti-TNFR1/AlbudAb fusion

Mean EC50, inhibition of TNF-alpha-induced VCAM-1 expression in the HUVEC cell assay [3]: 5.79 nM
Kd [4]: 0.277 nM
B5: DMS5535 (bispecific antibody)
chain: B4 chain with D30S, V104E
notes: Single-chain genetic fusion of the anti-TNFR1 VH dAb DOM1h-574-196, linker AST and the anti-serum albumin Vk dAb DOM7h-11-3; also called DOM1h-574-196 - Ala-Ser-Thr - DOM7h-11-3; anti-TNFR1/AlbudAb fusion

Mean EC50, inhibition of TNF-alpha-induced VCAM-1 expression in the HUVEC cell assay [3]: 6.23 nM
Kd [4]: 0.202 nM
B6: DMS5542 (bispecific antibody)
chain: B4 chain with D30S, H62D
notes: Single-chain genetic fusion of the anti-TNFR1 VH dAb DOM1h-574-214, linker AST and the anti-serum albumin Vk dAb DOM7h-11-3; also called DOM1h-574-214 - Ala-Ser-Thr - DOM7h-11-3; anti-TNFR1/AlbudAb fusion
